Measured values published in the supplement of paper PMC9942255.

Each sequence was assayed on Bacillus subtilis DB104 (SP-AmyQ fusion secretion) (assay: AmyQ secretion efficiency, weighted average sort bin (1 = best secretion, 10 = worst) (bin number (weighted average, 1-10)); higher = lower secretion efficiency).
How it was run: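 With fluorescein-starch as substrate, a B. subtilis DB104 library expressing mature AmyQ fused to designed signal peptides (integrated at amyE) was encapsulated at about 0.3 cells per ~65 nL alginate bead. After about 13 h at room temperature, beads were nile red stained, and occupied beads were sorted by large-particle flow cytometry into 10 equally populated bins by green/red fluorescence ratio. Illumina sequencing of the amplicons in each bin was used to calculate the secretion score, which is the read-frequency-weighted average bin number, normalised to beads per bin, with low-abundance sequences left out.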
With MKRIRIPMTLALGAALTIAPLVFASAEEN the AmyQ secretion efficiency was 4.55. MFKKHTISLLIIFLLASAVLAKPIEAHDD was tested, and the AmyQ secretion efficiency was 3.1. MKNMSCKLVVSVTLFFSFLDSTPGAHAQNS showed an AmyQ secretion efficiency of 1.96. MMKKGLLAGALTATVLFGTCAVDVPGIISPKTAEAASR was tested, and the AmyQ secretion efficiency was 2.71. MKWMCSICCAAVLLAGGAAQSEAV gave an AmyQ secretion efficiency of 4.64. MPYLKRVLLLLVTGLFMSLFAVTATASPQTG showed an AmyQ secretion efficiency of 1.86. Sequence MKIRKILLSSALSFGMLEDDDEDALAAGT has an AmyQ secretion efficiency of 5.74. MRSYIKVLTMCFLGLILFVPTALMDNS showed an AmyQ secretion efficiency of 6.46. In the case of MMITWNVCLTALLSVLLVAGSVPFHAEAKKP, the AmyQ secretion efficiency was 3.89. Sequence MRKKRAVLLSLIMLIAGFLISFSFQM has an AmyQ secretion efficiency of 7.34. With MKKVMLATALFLPAGANAADL the AmyQ secretion efficiency was 7.34. For MKKLLAAGIIGLLTVSIASPSFPAEK, the AmyQ secretion efficiency was 7.88. MRFTKFMSIVVGFLSVLGLAAVFPLTAQAEKA showed an AmyQ secretion efficiency of 2.72. Sequence MAAQTDYKKQVVGILLSLAFVLRRRKFSERHE has an AmyQ secretion efficiency of 7.65. Work on MKLSVKIALVLIVAAAAMTAKMYATAKGN yielded an AmyQ secretion efficiency of 3.77. MKRIRILALGAALTIAPLSFASAEEN was tested, and the AmyQ secretion efficiency was 3.38. In the case of MNMLKRLSMLTVMIASVFIFSSHALAAQY, the AmyQ secretion efficiency was 1.63. MGSSILLSSLAISALSLGLLVSAPTASFAAES was tested, and the AmyQ secretion efficiency was 3.62. In the case of MKTKTLFIFSAILTLSIFAPNETFARRR, the AmyQ secretion efficiency was 2.28. For MKKQIITATTAVVLGSTLFAGATGFAFAPASAQSI, the AmyQ secretion efficiency was 3.63. In the case of MSTSTSSSLISSTVLSTVVISSLLFPGAAGASSK, the AmyQ secretion efficiency was 2.7. For MKKKLAAGLTASAIVGTTLVVTPAEGATI, the AmyQ secretion efficiency was 3.33. For MTMLLAAGIIGLLTVSIASPSFAAEK, the AmyQ secretion efficiency was 5.35. With MKSKGSIMACLILFSFTITTFINTETISKFSN the AmyQ secretion efficiency was 7.47. MKKRKVLTGSVLSLGLLVSASPAFATSP was tested, and the AmyQ secretion efficiency was 1.37. In the case of MRKKCKVCLWILVLLLSCLSGKSAYAATS, the AmyQ secretion efficiency was 2.26. MKLWMRKTLVVLFTIVTFGLVSPPAALMSDKP was tested, and the AmyQ secretion efficiency was 3.94. MKLKSKYKGGCYAAAAIFTAAGVSANAEALDF gave an AmyQ secretion efficiency of 7.31. MRKKRYGKCRQGSSLTLGSLLPAGYATAKED gave an AmyQ secretion efficiency of 8.17. MILANSVSALTPSTTLAITAKAKEL gave an AmyQ secretion efficiency of 8.58. Work on MKSKGSIMACLILFSFTITTFINTETHSAFSN yielded an AmyQ secretion efficiency of 7.73. MRKKRVITCVMAASLTLGSLLPAGYASAADD gave an AmyQ secretion efficiency of 5.09. Sequence MKSKVKIAGVLTVAAAAMTAKMYATAKGN has an AmyQ secretion efficiency of 7.17. In the case of MKRIRIPMTLKRKRKRTIAPLSFASAEEN, the AmyQ secretion efficiency was 8.12. Sequence MKWMCSICCAAVLLAGGAAQLEAV has an AmyQ secretion efficiency of 3.67. With MTKKAWFLPLVCVLLISGWLAPAASASQQTT the AmyQ secretion efficiency was 2.02. MKKKLAAGLTASAIVGTTLVEDEEDAEAATI was tested, and the AmyQ secretion efficiency was 6.91. With MKSCKQLIVCSLAAILLLLSLTFIPSVSFAADS the AmyQ secretion efficiency was 3.91. Work on MKKWLIIAVSLAIAIVLFMYTKGEQKAAGM yielded an AmyQ secretion efficiency of 6.98. With MNLRKTYSGRGYSLGMLVSAAPVLATSS the AmyQ secretion efficiency was 6.74. In the case of MKLWMRKTLVVLFTIVTFGLVSPPAAQMADKP, the AmyQ secretion efficiency was 1.81. With MKKWIYVVLVLSIAGIGGKRKKKKVHAASS the AmyQ secretion efficiency was 7.49. In the case of MKVKRKRLLLLLFAFEPSASGKKL, the AmyQ secretion efficiency was 7.56. MLKRTSFVSSLFISSAVLLSILLPSGQAHAQKR gave an AmyQ secretion efficiency of 2.41. MKKRLIAPMLLSAASLAFFAMSGSAQVAAY gave an AmyQ secretion efficiency of 5.79. MLTKRLLTIYIMLLGLIAWFPGATVPAQAEEK gave an AmyQ secretion efficiency of 2.86. MPIKKKVMMCLAVTLVFGSMSFPTLTNATSGGFKE gave an AmyQ secretion efficiency of 2.8. MFLRKILLSSALSLGMLVSAAPVLATSS was tested, and the AmyQ secretion efficiency was 2.2. Sequence MKRMIVRMTKKRRIVCLAFSSFSASARAASE has an AmyQ secretion efficiency of 5.68. Sequence MRKWYFILLAGVLTSVILAFVYDKTKYNEE has an AmyQ secretion efficiency of 4.09. MKSKWMSGLLLVAVGFSFTQVMSHAGET gave an AmyQ secretion efficiency of 6.67. Sequence MKKRRVLMAFIICLSLILSVLAAPPSGAKAESV has an AmyQ secretion efficiency of 1.87. Sequence MPYLKRVLLLLVTGLFMSLFAVTATASEQTG has an AmyQ secretion efficiency of 1.36. Sequence MKRIRIPMTLALGAALTIAPLSFASQEEN has an AmyQ secretion efficiency of 7.06. With MRSKKLWISLLFALTLIFVMAFGNMTAQAAGK the AmyQ secretion efficiency was 1.9. In the case of MKLKKRVSMFLVALTMCGTPAKAVKT, the AmyQ secretion efficiency was 2.72. For MKRIRIPMTLALGAALTIAPLTVATASFASAEEN, the AmyQ secretion efficiency was 4.63. MKRFSTAYLLLGILCSAAVFLIGAPSRALGAPD was tested, and the AmyQ secretion efficiency was 2.52. For MKLSVKIAGVLTVAAAAMTAKMYFFPAATAKGN, the AmyQ secretion efficiency was 6.16. Work on MRKNRILALFVLSLGLLRRKVTPVSAASK yielded an AmyQ secretion efficiency of 7.91. Sequence MRIFKKAVFVIMISFLIATVNVNTAHAAIG has an AmyQ secretion efficiency of 1.03. With MKNMSKLVVSVTLFFSFLTIGPLAHAQNS the AmyQ secretion efficiency was 1.41. MRKVVGFLSVLGLAAVFPLTAQAEKA was tested, and the AmyQ secretion efficiency was 2.03.
